From patent US8129349B2, “Treatment of disease by inducing cell apoptosis” (The Regents of the University of California, priority 2000, dated 2012)

What was measured:
procaspase 1 = biological target: T1, procaspase 1 (Homo sapiens, UniProt P29466); experiment: Co-immunoprecipitation of purified recombinant procaspase 1 with recombinant C/EBPβ peptides; type: binding; settings: peptides 200 μM, procaspase 1 0.6 U, quantitated by densitometry
T1 construct: purchased Alexis Biochemicals 201-056
T1 sequence (P29466 1-404): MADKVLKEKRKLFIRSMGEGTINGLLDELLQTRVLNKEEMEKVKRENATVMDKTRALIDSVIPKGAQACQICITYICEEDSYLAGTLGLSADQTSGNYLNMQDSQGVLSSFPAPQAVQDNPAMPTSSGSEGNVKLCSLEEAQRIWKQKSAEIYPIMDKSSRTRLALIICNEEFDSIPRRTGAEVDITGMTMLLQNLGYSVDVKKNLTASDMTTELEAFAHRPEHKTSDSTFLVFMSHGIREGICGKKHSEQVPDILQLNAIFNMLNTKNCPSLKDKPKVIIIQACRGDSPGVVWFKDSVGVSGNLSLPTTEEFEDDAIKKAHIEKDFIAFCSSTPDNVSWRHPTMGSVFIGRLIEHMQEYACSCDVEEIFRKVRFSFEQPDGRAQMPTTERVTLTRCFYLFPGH
Protocol: (§1) FIG. 5 provides results showing the direct association of C/EBPβ-Glu^217 with procaspases 1 and 8. […] Enzyme activity was measured in the absence (control) or presence of C/EBPβ peptides (200 μM) for 2 h, using a procaspases 1 (1U) (not shown) and 8 (0.2 μg) activity assay. Values are presented as the mean±one half the range of duplicates. Panel C provides results for cells cultured on a collagen type I matrix and incubated with the indicated cell permeant, purified synthetic N-acetyl, C-aldehyde C/EBPβ tetra-peptides (10 μM) or with recombinant C/EBPβ-HA peptides as indicated, together with the Chariot reagent (Active Motif) for 4 h. Control cells were incubated without peptides (P<0.05 for all peptides containing Ala^217).
(§2) Purified recombinant C/EBPβ peptides, expressed as known in the art (See, Descombes et al., supra; and Buck et al. (1994), supra), and purified synthetic N-acetyl, C-aldehyde tetrapeptides (200 μM) (American Peptide Company) were assayed for their ability to inhibit the activity of purified human recombinant caspases 1 (catalogue # 201-056) and 8 (catalogue # 201-041-C005) (Alexis Biochemicals). The sequence of caspase 8 includes Ser217 through Asp479 cloned into an expression vector containing a 21 amino acid linker at the N-terminus. Thus, the prodomain (first 220 amino acids) is essentially missing. The fragment is cleaved at Asp385 and the active caspases are essentially identical to those identified in apoptotic cells (Stennicke and Salvesen, Meth. Enzymol., 322:91-100 (1997)). Caspase activity was determined by the release of the p-nitroaniline colorimetric (Alexis Biochemicals) substrate for caspase 1 (catalogue # 260-026) or 8 (catalogue # 260-045) within the linear part of the kinetic assay (Thornberry et al. (1997), supra; Stennicke and Salvesen, supra). Caspase 1 and 8 activity in cells was performed with colorimetric kits (catalogues # 850-211-K and 850-221-K) as described by the manufacturer (Alexis) (See also, Thornberry et al. (1997), supra). The caspase 8 inhibitor IETD was from Calbiochem (Catalogue # 218773).
To delineate the role of C/EBPβ on the activation of procaspases 1 and 8, the self-activation of recombinant procaspases 1 and 8 was induced in vitro (Wilson et al., supra; Margolin et al., supra; and Earnshaw et al., supra), and the effect of purified recombinant C/EBPβ peptides, produced as described previously (Descombes et al., supra; and Buck et al., (1994), supra) on this process was determined. Consistent with the in vivo results described above, C/EBPβ-HA-Glu^217 and C/EBPβ 216-253-HA-Glu^217, but not C/EBPβ-HA-Ala^217, peptides associated with procaspases 1 and 8 (See, FIG. 5, Panel A). […]

caspase 1 = biological target: T2, caspase 1 (Homo sapiens, UniProt P29466); experiment: In vitro self-activation of recombinant caspase 1; type: biochemical; settings: peptides 200 μM, 2 h, procaspase 1 (1U)
T2 construct: purchased Alexis Biochemicals 201-056
T2 sequence (P29466 120-404): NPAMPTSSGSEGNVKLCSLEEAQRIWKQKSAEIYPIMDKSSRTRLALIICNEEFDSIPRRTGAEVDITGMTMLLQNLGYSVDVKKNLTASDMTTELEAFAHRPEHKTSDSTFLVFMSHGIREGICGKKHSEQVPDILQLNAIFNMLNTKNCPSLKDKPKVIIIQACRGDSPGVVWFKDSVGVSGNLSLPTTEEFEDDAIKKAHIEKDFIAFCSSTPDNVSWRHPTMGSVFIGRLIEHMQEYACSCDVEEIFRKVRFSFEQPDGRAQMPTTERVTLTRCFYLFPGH
Protocol: as §1
as §2, with “The fragment is cleaved at Asp385 and the active caspases are essentially identical to those identified in apoptotic cells (Stennicke and Salvesen, Meth. Enzymol., 322:91-100 (1997)).” left out, “Caspase 1 and 8 activity in cells was performed with colorimetric kits (catalogues # 850-211-K and 850-221-K) as described by the manufacturer (Alexis) (See also, Thornberry et al. (1997), supra). The caspase 8 inhibitor IETD was from Calbiochem (Catalogue # 218773).” left out
(§3) To delineate the role of C/EBPβ on the activation of procaspases 1 and 8, the self-activation of recombinant procaspases 1 and 8 was induced in vitro (Wilson et al., supra; Margolin et al., supra; and Earnshaw et al., supra), and the effect of purified recombinant C/EBPβ peptides, produced as described previously (Descombes et al., supra; and Buck et al., (1994), supra) on this process was determined. […]

[1] = test system: C/EBPβ-Ala^217 stellate cells; experiment: Apoptosis of stellate cells from C/EBPβ-Ala^217 transgenic mice, Hoechst 33342 nuclear staining; type: cell-based, mouse; settings: collagen type I; IETD or transfection 1 μg
Protocol: FIG. 2 provides results showing increased apoptosis in hepatic stellate cells from C/EBPβ^−/− and C/EBPβ-Ala^217 transgenic mice. […] Six hours after cultivation, an annexin-V-PE binding assay was performed (P<0.05 for C/EBPβ^−/− and C/EBPβ-Ala^217). […] Apoptotic cells are indicated with arrowheads.
Fluorescent labels were observed using a triple-channel fluorescence microscope. The fluorochromes utilized were FITC and Texas red (Molecular Probes). The number of annexin V (+) cells was determined by in vivo microscopy as known in the art (See, Rudel and Bokoch, supra) among all cells or those expressing the GFP indicator protein either co-transfected with C/EBPβ proteins, or alone. These values are reported herein as a percentage of annexin V (+) for cells expressing the transfected DNA. At least 1000 cells were analyzed per experimental point, including at least 100 cells expressing the transfected DNA (Buck and Chojkier, EMBO J., 15:1753-1765 (1996); Buck et al., (1994), supra; and Buck et al., (1999), supra). […] Nuclear morphology was analyzed by staining cells with Hoechst 33342 (Molecular Probes). […]

procaspase 8 = procaspase 8 (Homo sapiens, UniProt Q14790); experiment: Co-immunoprecipitation of purified recombinant procaspase 8 with recombinant C/EBPβ peptides; type: binding; design: 21 amino acid linker (vector-derived) (N); purchased Alexis Biochemicals 201-041-C005; settings: peptides 200 μM, procaspase 8 0.12 μg, quantitated by densitometry
Protocol: as §1
as §2, with “The fragment is cleaved at Asp385 and the active caspases are essentially identical to those identified in apoptotic cells (Stennicke and Salvesen, Meth. Enzymol., 322:91-100 (1997)).” left out, “Caspase 1 and 8 activity in cells was performed with colorimetric kits (catalogues # 850-211-K and 850-221-K) as described by the manufacturer (Alexis) (See also, Thornberry et al. (1997), supra). The caspase 8 inhibitor IETD was from Calbiochem (Catalogue # 218773).” left out
as §3

procaspase 8, sequence (Q14790 217-479): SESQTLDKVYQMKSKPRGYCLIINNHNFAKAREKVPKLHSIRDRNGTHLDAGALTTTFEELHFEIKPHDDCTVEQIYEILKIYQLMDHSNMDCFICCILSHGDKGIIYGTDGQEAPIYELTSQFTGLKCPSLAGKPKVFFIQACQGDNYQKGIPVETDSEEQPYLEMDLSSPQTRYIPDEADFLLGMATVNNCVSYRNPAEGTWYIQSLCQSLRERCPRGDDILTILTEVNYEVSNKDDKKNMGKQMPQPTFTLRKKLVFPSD

B1: C/EBPβ-Glu^217: modified murine C/EBPβ with mutation of Thr^217 to glutamic acid (SEQ ID NO:4), phosphorylation mimic (protein, listed as Mus musculus)
chain: MHRLLAWDAACLPPPPAAFRPMEVANFYYEPDCLAYGAKAARAAPRAPAAEPAIGEHERAIDFSPYLEPLAPAADFAAPAPAHHDFLSDLFADDYGAKPSKKPADYGYVSLGRAGAKAAPPACFPPPPPAALKAEPGFEPADCKRADDAPAMAAGFPFALRAYLGYQATPSGSSGSLSTSSSSSPPGTPSPADAKAAPAACFAGPPAAPAKAKAKKZVDKLSDEYKMRRERNNIAVRKSRDKAKMRNLETQHKVLELTAENERLQKKVEQLSRELSTLRNLFKQLPEPLLASAGHC
Q: With B1 as the molecule, how does the “Co-immunoprecipitation of procaspase 1, fold more than the Ala^217 peptides” value (procaspase 1) read?
A: Its value is 7 fold.

Q: What about the “Inhibition of in vitro self-activation of caspase 1” value (caspase 1) of the same molecule?
A: The value was “inhibited the in vitro self-activation”.

Q: What about the “Block of apoptosis of C/EBPβ-Ala^217 stellate cells” value [1] of the same molecule?
A: Its value is “blocked”.

Q: What about the “Co-immunoprecipitation of procaspase 8, fold more than the Ala^217 peptides” value (procaspase 8) of the same molecule?
A: The value was 12 fold.
